Assay results reported in US20090264359A1, “FPLR-1 INHIBITORS FOR USE IN DISEASES INVOLVING AMYLOID-INDUCED INFLAMMATORY EVENTS (FLIPR AND FLIPR-LIKE) AND IMMUNECOMPLEX-[…] DISEASES” (published 2009).

How the values were obtained:
[1] = molecular target: FPR on human neutrophils and monocytes (human, UniProt P21462); assay: cell-based or functional assay
[2] = molecular target: FcγRs on human neutrophils and peripheral blood monocytes

B1: FLIPr-like (other)
chain: FFSYEWKGLEIAKNLADQAKKDDERADKLIKEADEKNEHYKGKTVEDLYVIAKKMGKGNTIAVVKIKDGGKNGYYTFDITRPLEEHRKNIPVVKNGEIDSITWY
modifications: FITC label in the flow cytometric binding assays (FLIPr-like-FITC); unlabelled elsewhere
Question: B1 was tested. Which “FPR blocking activity (fMLF-induced activation of neutrophils)” value [1] did it give?
Answer: Its value is ~100 fold.

Question: And the minimal effective concentration in phagocytosis by human neutrophils [2]?
Answer: Its minimal effective concentration in phagocytosis by human neutrophils is 0.19 µg/mL.
